Assay results from the supplement of paper PMC9112550, “Optimization of the antimicrobial peptide Bac7 by deep mutational scanning” (BMC Biology, 2022).

System: Escherichia coli TOP10
Test: shrunken log2 fold change of peptide-encoding DNA abundance (4.5 h post-induction vs induction); higher = less antimicrobial activity (less host growth inhibition)
Details: time post-induction: 4.5 h; library: site-saturation at positions 5, 18, 19, 20
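Further: peptides expressed intracellularly from a pBAD plasmid library in pooled LB shake-flask culture, induced with 0.3% L-arabinose, DNA abundance read by NGS, three biological replicates, DESeq2 with apeglm shrinkage.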

| Sequence | shrunken log2 fold change |
| --- | --- |
| RRIRKRPPRLPRPRPRPMAIPRP | 0.116 |
| RRIRSRPPRLPRPRPRPFVVPRP | -0.0648 |
| RRIRMRPPRLPRPRPRPFSMPRP | -0.112 |
| RRIRNRPPRLPRPRPRPLIAPRP | -0.305 |
| RRIRHRPPRLPRPRPRPFGYPRP | -0.133 |
| RRIRMRPPRLPRPRPRPSPEPRP | 1.12 |
| RRIRVRPPRLPRPRPRPNWIPRP | -0.29 |
| RRIRCRPPRLPRPRPRPMKAPRP | -0.173 |
| RRIRSRPPRLPRPRPRPWHFPRP | -0.0226 |
| RRIRLRPPRLPRPRPRPMWQPRP | 0.0197 |
| RRIRNRPPRLPRPRPRPSCTPRP | -0.34 |
| RRIRVRPPRLPRPRPRPNAFPRP | -0.0289 |
| RRIRKRPPRLPRPRPRPFMYPRP | -0.401 |
| RRIRFRPPRLPRPRPRPPRNPRP | 0.263 |
| RRIRERPPRLPRPRPRPGWLPRP | 0.256 |
| RRIRKRPPRLPRPRPRPDHMPRP | 0.0864 |
| RRIRKRPPRLPRPRPRPDNSPRP | -0.00848 |
| RRIRRRPPRLPRPRPRPDNRPRP | 0.0484 |
| RRIRHRPPRLPRPRPRPRVLPRP | -0.0249 |
| RRIRNRPPRLPRPRPRPHLEPRP | 0.0549 |
| RRIRCRPPRLPRPRPRPPTAPRP | 0.272 |
| RRIRFRPPRLPRPRPRPKDHPRP | -0.179 |
| RRIRQRPPRLPRPRPRPKGRPRP | 0.0377 |
| RRIRNRPPRLPRPRPRPGMPPRP | -0.107 |
| RRIRRRPPRLPRPRPRPPTGPRP | 0.625 |

| Sequence | shrunken log2 fold change |
| --- | --- |
| RRIRFRPPRLPRPRPRPPMGPRP | -0.00833 |
| RRIRLRPPRLPRPRPRPLKSPRP | -0.146 |
| RRIRWRPPRLPRPRPRPKGQPRP | -0.0148 |
| RRIRMRPPRLPRPRPRPTNCPRP | 0.0955 |
| RRIRYRPPRLPRPRPRPLREPRP | 0.483 |
| RRIRKRPPRLPRPRPRPYWPPRP | -0.000778 |
| RRIRCRPPRLPRPRPRPVWKPRP | 0.159 |
| RRIRVRPPRLPRPRPRPRSGPRP | 0.322 |
| RRIRCRPPRLPRPRPRPTNCPRP | -0.282 |
| RRIRPRPPRLPRPRPRPDNKPRP | -0.778 |
| RRIRTRPPRLPRPRPRPAYFPRP | 0.0144 |
| RRIRLRPPRLPRPRPRPQRIPRP | -0.141 |
| RRIRERPPRLPRPRPRPQHCPRP | -0.23 |
| RRIRWRPPRLPRPRPRPFMFPRP | -0.0915 |
| RRIRVRPPRLPRPRPRPDINPRP | -0.00784 |
| RRIRVRPPRLPRPRPRPAGHPRP | -0.1 |
| RRIRCRPPRLPRPRPRPAVPPRP | 0.073 |
| RRIRPRPPRLPRPRPRPHPHPRP | 0.0281 |
| RRIRVRPPRLPRPRPRPISTPRP | -0.112 |
| RRIRSRPPRLPRPRPRPSICPRP | -0.0672 |
| RRIRRRPPRLPRPRPRPWCFPRP | -0.0808 |
| RRIRNRPPRLPRPRPRPRVYPRP | -0.0128 |
| RRIRNRPPRLPRPRPRPGWHPRP | -0.154 |
| RRIRMRPPRLPRPRPRPRYIPRP | -0.31 |
| RRIRHRPPRLPRPRPRPGMNPRP | 0.00489 |

| Sequence | shrunken log2 fold change |
| --- | --- |
| RRIRFRPPRLPRPRPRPMQTPRP | -0.101 |
| RRIRTRPPRLPRPRPRPWIWPRP | -0.0307 |
| RRIRWRPPRLPRPRPRPIMRPRP | 0.0401 |
| RRIRCRPPRLPRPRPRPCFHPRP | -0.597 |
| RRIRLRPPRLPRPRPRPFDKPRP | -0.151 |
| RRIRHRPPRLPRPRPRPSTGPRP | -0.24 |
| RRIRKRPPRLPRPRPRPKMVPRP | -0.031 |
| RRIRTRPPRLPRPRPRPEKLPRP | -0.0188 |
| RRIRERPPRLPRPRPRPFGGPRP | -0.0945 |
| RRIRVRPPRLPRPRPRPDKVPRP | -0.332 |
| RRIRDRPPRLPRPRPRPVSYPRP | -0.0715 |
| RRIRMRPPRLPRPRPRPIPKPRP | 0.0362 |
| RRIRWRPPRLPRPRPRPLVSPRP | 1.59 |
| RRIRERPPRLPRPRPRPMALPRP | -0.0232 |
| RRIRYRPPRLPRPRPRPIEKPRP | -0.203 |
| RRIRDRPPRLPRPRPRPWRWPRP | 0.196 |
| RRIRKRPPRLPRPRPRPKTMPRP | 0.185 |
| RRIRPRPPRLPRPRPRPYSKPRP | -0.868 |
| RRIRGRPPRLPRPRPRPWHVPRP | -0.0733 |
| RRIRIRPPRLPRPRPRPAGPPRP | 0.153 |
| RRIRGRPPRLPRPRPRPRAKPRP | 1.22 |
| RRIRMRPPRLPRPRPRPVNTPRP | 0.0779 |
| RRIRFRPPRLPRPRPRPHVLPRP | -0.286 |
| RRIRPRPPRLPRPRPRPTNSPRP | -0.195 |
| RRIRIRPPRLPRPRPRPFYEPRP | -0.231 |

| Sequence | shrunken log2 fold change |
| --- | --- |
| RRIRSRPPRLPRPRPRPYRDPRP | -0.128 |
| RRIRIRPPRLPRPRPRPHTYPRP | -0.715 |
| RRIRFRPPRLPRPRPRPGEFPRP | -0.239 |
| RRIRRRPPRLPRPRPRPENLPRP | 0.0548 |
| RRIRIRPPRLPRPRPRPYHKPRP | -0.165 |
| RRIRERPPRLPRPRPRPQISPRP | -0.0116 |
| RRIRLRPPRLPRPRPRPTWWPRP | 0.454 |
| RRIRDRPPRLPRPRPRPLPFPRP | -0.398 |
| RRIRFRPPRLPRPRPRPEWPPRP | 0.459 |
| RRIRMRPPRLPRPRPRPIDFPRP | -0.00165 |
| RRIRFRPPRLPRPRPRPTVEPRP | 0.0624 |
| RRIRLRPPRLPRPRPRPRWIPRP | -0.074 |
| RRIRMRPPRLPRPRPRPDREPRP | -0.00516 |
| RRIRARPPRLPRPRPRPFRNPRP | -0.575 |
| RRIRGRPPRLPRPRPRPLQFPRP | 0.312 |
| RRIRFRPPRLPRPRPRPDEFPRP | -0.267 |
| RRIRPRPPRLPRPRPRPELRPRP | -0.0276 |
| RRIRMRPPRLPRPRPRPEIDPRP | 3.19 |
| RRIRVRPPRLPRPRPRPFSYPRP | -0.012 |
| RRIRFRPPRLPRPRPRPEFYPRP | 0.0551 |
| RRIRYRPPRLPRPRPRPCNYPRP | -0.87 |
| RRIRIRPPRLPRPRPRPKHRPRP | -0.103 |
| RRIRQRPPRLPRPRPRPFIMPRP | -1.46 |
| RRIRCRPPRLPRPRPRPARPPRP | 0.52 |
| RRIRDRPPRLPRPRPRPQTWPRP | -0.109 |

| Sequence | shrunken log2 fold change |
| --- | --- |
| RRIRPRPPRLPRPRPRPDHWPRP | 0.0752 |
| RRIRCRPPRLPRPRPRPIAAPRP | 0.549 |
| RRIRQRPPRLPRPRPRPTLDPRP | 0.476 |
| RRIRVRPPRLPRPRPRPMVEPRP | 0.303 |
| RRIRMRPPRLPRPRPRPANKPRP | 0.178 |
| RRIRTRPPRLPRPRPRPFEHPRP | -0.32 |
| RRIRLRPPRLPRPRPRPLPFPRP | -0.289 |
| RRIRGRPPRLPRPRPRPLIMPRP | 0.206 |
| RRIRLRPPRLPRPRPRPNRGPRP | -0.00212 |
| RRIRARPPRLPRPRPRPCCAPRP | 0.774 |
| RRIRKRPPRLPRPRPRPMGWPRP | 0.31 |
| RRIRWRPPRLPRPRPRPEKRPRP | 0.028 |
| RRIRIRPPRLPRPRPRPGRGPRP | 0.268 |
| RRIRVRPPRLPRPRPRPTNTPRP | -0.175 |
| RRIRCRPPRLPRPRPRPPCTPRP | -0.0939 |
| RRIRMRPPRLPRPRPRPTYAPRP | 0.0341 |
| RRIRTRPPRLPRPRPRPHVDPRP | 0.0574 |
| RRIRTRPPRLPRPRPRPKPDPRP | 0.214 |
| RRIRKRPPRLPRPRPRPDQHPRP | -0.0427 |
| RRIRCRPPRLPRPRPRPGVNPRP | -0.584 |
| RRIRFRPPRLPRPRPRPEFIPRP | -0.523 |
| RRIRPRPPRLPRPRPRPQQKPRP | 0.433 |
| RRIRGRPPRLPRPRPRPPLFPRP | 0.974 |
| RRIRHRPPRLPRPRPRPKWKPRP | 0.107 |
| RRIRQRPPRLPRPRPRPDTLPRP | 0.016 |

| Sequence | shrunken log2 fold change |
| --- | --- |
| RRIRHRPPRLPRPRPRPPCAPRP | 0.228 |
| RRIRQRPPRLPRPRPRPSFTPRP | -1.12 |
| RRIRDRPPRLPRPRPRPAFWPRP | -0.0581 |
| RRIRSRPPRLPRPRPRPMTFPRP | -0.202 |
| RRIRDRPPRLPRPRPRPPGCPRP | -0.0092 |
| RRIRCRPPRLPRPRPRPSDPPRP | -0.317 |
| RRIRFRPPRLPRPRPRPWPKPRP | 0.125 |
| RRIRDRPPRLPRPRPRPGNHPRP | 0.0062 |
| RRIRIRPPRLPRPRPRPSWNPRP | -0.49 |
| RRIRLRPPRLPRPRPRPANLPRP | -0.00914 |
| RRIRTRPPRLPRPRPRPDEFPRP | -0.00523 |
| RRIRVRPPRLPRPRPRPMNTPRP | -0.312 |
| RRIRNRPPRLPRPRPRPTPGPRP | 0.312 |
| RRIRSRPPRLPRPRPRPLNEPRP | -0.177 |
| RRIRCRPPRLPRPRPRPCRTPRP | -0.168 |
| RRIRCRPPRLPRPRPRPYNDPRP | -0.456 |
| RRIRWRPPRLPRPRPRPIQMPRP | -0.0543 |
| RRIRKRPPRLPRPRPRPRTKPRP | 1.08 |
| RRIRLRPPRLPRPRPRPTQQPRP | 0.0862 |
| RRIRYRPPRLPRPRPRPTLHPRP | -0.749 |
| RRIRVRPPRLPRPRPRPITLPRP | 1.44 |
| RRIRARPPRLPRPRPRPPFTPRP | 0.3 |
| RRIRIRPPRLPRPRPRPKDNPRP | -0.606 |
| RRIRQRPPRLPRPRPRPKQMPRP | 0.114 |
| RRIRVRPPRLPRPRPRPQRLPRP | 0.275 |
